This is an account of results in paper PMC11135836.

The data set deals with T1, RstA (Escherichia coli LF82 (adherent-invasive)?), ORF:9fe818c8.
T1 sequence: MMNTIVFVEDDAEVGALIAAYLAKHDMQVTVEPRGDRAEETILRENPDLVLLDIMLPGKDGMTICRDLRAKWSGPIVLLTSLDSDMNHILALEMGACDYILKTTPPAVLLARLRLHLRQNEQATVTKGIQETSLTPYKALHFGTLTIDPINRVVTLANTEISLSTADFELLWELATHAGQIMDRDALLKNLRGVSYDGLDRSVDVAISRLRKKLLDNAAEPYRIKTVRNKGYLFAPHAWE
Kind of data set: EMSA. The settings on record: EMSA: 40 ng PCR fragment, 0-2 uM RstA, 20 uL; 1 mM Tris-HCl pH 7.5, 0.2 mM DTT, 5 mM MgCl2, 10 mM KCl, 10% glycerol, 30 mM acetyl phosphate; 25 C 30 min …. (In general: Mobility shift assays separate free from complexed probe on a gel.)
In the case of “ATGACGAAAGGACTACAGCGAAATATTTTTTATATGCATTATTAGTAAGTTAGCACCATTTGTATGATTTTTTAAAATTGTGCAATAAAAACCAAATGTACAACTTTTCTATCATTTATAAACTTAATAAAACCTTAAGGTTAACATTTTAATATAACGAGTTGCATTTAGTTACATGTTTAACACTTGATTTAAGATTTGTAATGGCTAGATTGAAATCAGATGTAATCCATTAGTTTTATATTTTACCCATTTAGGGCTGATTTATTACTACACACA (double strand) [csgD promoter]”, the binding entry is listed as “binds”. In the case of “CAAGCAAAAGCCTGGTTCCGCCGATTTATCGCTGCGGCAAATAACGCAGCGGGTTTACGGATTTCCCCTTGTAACGAATTTCAAAATGCAAGCGTGTTGAACTGGTTCCGGTGCTACCCATGGTTGCTATTTTTTGCCCCGCCTTCACTTCTTGTTGTTCCCGGACCAGCATTGTGTCGTTATGGGCGTAGG (double strand) [rpoS promoter (negative control)]” it was “no binding”. For the sequence “TGCGCAGTTATTCTACCGCTTTGTAAGTAGTAAAATAGTTAACACGATCAAGACTACTATTATTGGTAGCTAAATTTTCCTTAAGTCACAATACGTTATTATCAATGCTGTAATTTATTCAGCGTTTGTACATATCGTTACACGCTGAAACCAACCACTCACGGAAGTCTGCCATTCC (double strand) [asr promoter]”, the binding result is on record as “binds”.
